According to US20170306050:

Legend:
α1-antitrypsin = α1-antitrypsin (UniProt P01009)
α1-antitrypsin, sequence (P01009 whole entry, looked up): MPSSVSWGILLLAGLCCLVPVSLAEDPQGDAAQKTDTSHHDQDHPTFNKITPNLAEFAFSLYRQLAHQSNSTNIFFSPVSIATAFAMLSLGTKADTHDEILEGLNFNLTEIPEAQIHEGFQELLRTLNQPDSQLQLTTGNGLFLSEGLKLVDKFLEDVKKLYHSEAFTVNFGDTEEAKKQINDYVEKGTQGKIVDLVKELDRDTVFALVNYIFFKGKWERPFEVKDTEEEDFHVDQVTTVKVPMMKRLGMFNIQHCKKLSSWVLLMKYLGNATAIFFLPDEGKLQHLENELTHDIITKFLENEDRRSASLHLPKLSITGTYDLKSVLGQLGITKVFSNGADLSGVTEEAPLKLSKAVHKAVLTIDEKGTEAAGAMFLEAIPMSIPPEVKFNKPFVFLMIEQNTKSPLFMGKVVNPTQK

active MMP3, sequence (chain, as listed by the source): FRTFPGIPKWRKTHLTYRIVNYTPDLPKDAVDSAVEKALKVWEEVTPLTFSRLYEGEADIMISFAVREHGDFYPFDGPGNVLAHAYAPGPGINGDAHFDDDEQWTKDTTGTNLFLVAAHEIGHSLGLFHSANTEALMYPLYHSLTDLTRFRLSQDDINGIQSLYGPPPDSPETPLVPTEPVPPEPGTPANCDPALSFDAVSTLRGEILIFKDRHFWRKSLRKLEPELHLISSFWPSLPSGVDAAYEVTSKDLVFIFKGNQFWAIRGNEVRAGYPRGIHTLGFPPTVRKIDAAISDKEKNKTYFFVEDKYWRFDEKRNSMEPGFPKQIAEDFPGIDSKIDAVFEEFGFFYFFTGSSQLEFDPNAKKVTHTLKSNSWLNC
active MMP9, sequence (chain, as listed by the source): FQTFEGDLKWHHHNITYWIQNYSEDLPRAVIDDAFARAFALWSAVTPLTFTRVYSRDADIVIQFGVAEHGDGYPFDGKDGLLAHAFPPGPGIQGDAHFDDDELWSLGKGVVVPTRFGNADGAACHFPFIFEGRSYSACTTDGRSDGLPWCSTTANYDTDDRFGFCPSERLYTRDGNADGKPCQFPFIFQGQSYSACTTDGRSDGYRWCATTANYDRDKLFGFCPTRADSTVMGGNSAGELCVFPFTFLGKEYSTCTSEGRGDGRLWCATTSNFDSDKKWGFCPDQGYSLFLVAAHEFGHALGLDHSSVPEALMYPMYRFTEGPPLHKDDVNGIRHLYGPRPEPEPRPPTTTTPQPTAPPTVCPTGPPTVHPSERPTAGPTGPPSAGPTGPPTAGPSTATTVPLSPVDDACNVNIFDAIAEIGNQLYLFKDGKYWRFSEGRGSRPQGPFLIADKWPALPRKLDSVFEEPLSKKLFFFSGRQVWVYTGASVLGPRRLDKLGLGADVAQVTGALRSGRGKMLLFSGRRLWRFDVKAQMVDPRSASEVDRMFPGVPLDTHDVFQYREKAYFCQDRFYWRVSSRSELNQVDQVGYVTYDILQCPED

Substance | activation of pro-MMP9 (appearance of the active MMP9 fragment by Li-Cor Western blot and increase in gelatinolytic activity) (Pro-MMP9) | cleavage of α1-antitrypsin by Western blot (α1-antitrypsin)
active MMP3 | Both proteases activated MMP9 in a dose-dependent manner | –
active MMP9 | – | In the presence of active MMP9 alone, α1-antitrypsin was cleaved from the active form to the inactive form
active Pseudomonas elastase | Both proteases activated MMP9 in a dose-dependent manner | –
